Data on five molecules can be found in US20230233707A1 (University of Washington, published 2023).

B1: d2.4 (designed binder)
chain: MSDEEERNELIKRIREAAQRAREAAERTGDPRVRELARELARIAQIAFYLVLHDPSSSEVNEALKAVVKAIELAVRALEAAEKTGDPRVRELAREVVKAAVDVAEAAQAGLNDKLREVAEKALRLAKEALKEGDSTAAELAAEIARLAAKLAGDEDVLKKVKLVLEAIKLVKIVVENAKRKGDDSKEAAEAAVAAFLIVLAAAKLAGIASEEVLELAARLIKEVVENAQREGYDIAVAAIAAAVAFAVVAVAAAAADITSSEVLELAIRLIKEVVENAQREGYVILLAALAAAAAFVVVAAAAKRAGITSSETLKRAIEEIRKRVEEAQREGNDISEAARQAAEEFRKKAEELKGSLEHHHHHH
notes: Homodimer for D2 dihedral cages; C-terminal GS linker and 6xHis tag; also called d2.4 AbC-forming design
B2: i52.3 (designed binder)
chain: MSDEEERNELIKRIREAAQRAREAAERTGDPRVRELARELARLAQRAFYLVLHDPSSSDVNEALKLIVEAIEAAVRALEAAERAGDPELREDAREAVRLAVEAAEEVQRNPSSSTANLLLKAIVALAEALAAAANGDKEKFKKAAESALEIAKRVVEVASKEGDPEAVLEAAKVALRVAELAAKNGDKEVFKKAAESALEVAKRLVEVASKEGDPELVLEAAKVALRVAELAAKNGDKEVFQKAAASAVEVALRLTEVASKEGDSELETEAAKVITRVRELASKQGDAAVAILAETAEVKLEIEESKKRPQSESAKNLILIMQLLINQIRLLVLQIRMLDEQRQEGSLEHHHHHH
notes: Homopentamer for I52 icosahedral cages; C-terminal GS linker and 6xHis tag; also called i52.3 AbC-forming design
B3: d2.7 (designed binder)
chain: MSDEEERNELIKRIREAAQRAREAAERTGDPRVRELARELAKLAQIAFYLVLHDPSAKEVNLALELIVKAIELAVRALEEAEKTGDPHARELAREIVRLAVELARAVAEAAEEAKKQGNSELAEQVARAAQVALEVIKAAITAAKQGDRKAFRAALELVLEVIKAIEEAVKQGNPKKVAEVALKAELIRIVVQNAANKGDDADEAVEAARAAFEIVLAAAQLAGIDSEEVLELAARLIKEVVENAQREGYDIAVAAIAAAVAFAVVAVAAAAADITSSEVLELAIRLIKEVVENAVREGYVILLAALAAAAAFVVVAAAAKRAGITSSETLKRAIEEIRKRVEEAQREGNDISEAARQAAEEFRKKAEELKGSLEHHHHHH
notes: Homodimer for D2 dihedral cages; C-terminal GS linker and 6xHis tag; also called d2.7 AbC-forming design
B4: d2.3 (designed binder)
chain: MSDEEERNELIKRIREAAQRAREAAERTGDPRVRELARELARIAQIAFYLVLHDPSSSEVNEALKAVVKAIELAVRALEEAEKTGDPEVRELAREVVRLAVEVATATAAGENDTLRKVAERALRLAKEAAKRGDAKAAKQAAKIAKLAAANAGDEDVLKKVELVRLAIELVEIVVENAKRKGDDDKEAAEAALAAFRIVLAAAQLAGIASLEVLELALRLIKEVVENAQREGYDIAVAAIAAAVAFAVVAVAAAAADITSSEVLELAIRLIKEVVENAQREGYVILLAALAAAAAFVVVAAAAKRAGITSSETLKRAIEEIRKRVEEAQREGNDISEAARQAAEEFRKKAEELKGSLEHHHHHH
notes: also called d2.3 AbC-forming design
B5: i52.6 (designed binder)
chain: MSDEEERNELIKRIREAAQRAREAAERTGDPRVRELARELARLAQRAFYLVLHDPSSSDVNEALKLIVEAIEAAVRALEAAERTGDPKVREEARELVRRAVEAAEEVQRNPSSSEVNEKLKAIVVEIEVKVASLEAKEVTDPDKALKIAKKVIELALEAVKENPSTEALRAVLEAVRLASEVAKRVTDPDKALKIAKLVIELALEAVKEDPSTDALRAVLEAVRLASEVAKRVTDPDKALKIAKLVLELAAEAVKEDPSTDALRAAKEAERLATEVAKRVTDPKKAREIEMLVLKLQMEAILAETEEVKKEIEESKKRPQSESAKNLILIMQLLINQIRLLALQIRMLALQLQEGSLEHHHHHH
notes: Homopentamer for I52 icosahedral cages; C-terminal GS linker and 6xHis tag; also called i52.6 AbC-forming design

This test deals with T1, Fc from human IgG1 (human, UniProt P01857-1 104-330 = IgG part).
T1 construct: domain: Fc; also called human IgG1 Fc; IgG1 Fc protein
Put plainly: SEC, design mixed with human IgG1 Fc, overlaid on the single components [panel B]. The source says:
Synthetic genes encoding designed protein sequences appended with a C-terminal 6× histidine tag were expressed in E. coli. Designs were purified from clarified lysates using immobilized metal affinity chromatography (IMAC), and size exclusion chromatography (SEC) was used as a final purification step. […] Designs were then combined with human IgG1 Fc, and the assemblies were re-purified via SEC. Eight of these AbC-forming designs assembled with Fc into a species that eluted as a monodisperse peak at a volume consistent with the target nanoparticle molecular weight (FIG. 2a-b; 3 D2 dihedral, 2 T32 tetrahedral, 1 O42 octahedral, and 2 I52 icosahedral AbCs). For the i52.6 design, adding 100 mM L-arginine to the assembly buffer prevented aggregation after combining with Fc; all other designs readily self-assembled in Tris-buffered saline.
Designs that produced monodisperse SEC peaks around their expected retention volume were combined with Fc from human IgG1. Fc was produced recombinantly either using standard methods for expression in HEK293T cells or in E. coli (43). Cage components were incubated at 4° C. for at minimum 30 minutes. […] Fc-binding and cage formation were confirmed via SEC; earlier shifts in retention time (compared to either component run alone) show the formation of a larger structure. NS-EM was used as previously described to confirm the structures of designs that passed these steps.
(In general: In gel filtration, larger molecules generally elute earlier.)
Turning to B1, the binding result was “binds”. As for B2, the entry is “binds”; as for B3, “binds”.

On to B4, for which the binding result is “binds”. As for B5, the binding result is reported as “binds”.
